Experimental data: PMC3026807

Target: His221 (UniProt position 221, RKPFYHAFSFM)
Test: electrophysiology
Details: Symmetrical high K+. Bath: standard solution with Na+ replaced equimolarly by K+ (140 mM extracellular K+). Pipette: 140 mM KCl.; 10 mM Hepes/Tris; MES for pH 5.0-6.5, AMPSO for pH 8.5-9.0, CAPS for pH 9.5-11.0; pHo gating in high symmetrical K+ (needed to restore currents of the double mutant)

TASK-3 (K2P9.1, KCNK9) H98N/V221H double mutant (Cavia porcellus; H98N;V221H)
pKa: 6.86±0.11
